# Measured values as given in the supplement of paper PMC9112550, “Optimization of the antimicrobial peptide Bac7 by deep mutational scanning” (BMC Biology, 2022).
# Tested on: Escherichia coli TOP10
# Assay: shrunken log2 fold change of peptide-encoding DNA abundance (4.5 h post-induction vs induction); higher = less antimicrobial activity (less host growth inhibition)
# Details: time post-induction: 4.5 h; library: site-saturation at positions 5, 18, 19, 20
# 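Further: peptides expressed intracellularly from a pBAD plasmid library in pooled LB shake-flask culture, induced with 0.3% L-arabinose, DNA abundance read by NGS, three biological replicates, DESeq2 with apeglm shrinkage.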
row,Sequence,shrunken log2 fold change
1,RRIRTRPPRLPRPRPRPYAYPRP,-0.0309
2,RRIRERPPRLPRPRPRPNKIPRP,-0.642
3,RRIRLRPPRLPRPRPRPYVMPRP,-0.194
4,RRIRARPPRLPRPRPRPVRKPRP,0.763
5,RRIRWRPPRLPRPRPRPLCCPRP,0.0117
6,RRIRMRPPRLPRPRPRPLEIPRP,0.103
7,RRIRLRPPRLPRPRPRPWHQPRP,0.0225
8,RRIRPRPPRLPRPRPRPSAVPRP,0.0719
9,RRIRERPPRLPRPRPRPAQHPRP,0.124
10,RRIRERPPRLPRPRPRPCSSPRP,0.00543
11,RRIRMRPPRLPRPRPRPYYLPRP,-0.326
12,RRIRVRPPRLPRPRPRPYHIPRP,-1.2
13,RRIRKRPPRLPRPRPRPRIEPRP,0.112
14,RRIRNRPPRLPRPRPRPQKVPRP,0.007
15,RRIRTRPPRLPRPRPRPINQPRP,-0.274
16,RRIRQRPPRLPRPRPRPMHCPRP,0.0165
17,RRIRKRPPRLPRPRPRPACWPRP,0.96
18,RRIRCRPPRLPRPRPRPVGFPRP,0.0344
19,RRIRPRPPRLPRPRPRPEHHPRP,-0.0616
20,RRIRMRPPRLPRPRPRPTTPPRP,1.15
21,RRIRPRPPRLPRPRPRPMLMPRP,0.459
22,RRIRRRPPRLPRPRPRPWKDPRP,-0.0442
23,RRIRYRPPRLPRPRPRPCLDPRP,-0.125
24,RRIRCRPPRLPRPRPRPRGMPRP,1.56
25,RRIRMRPPRLPRPRPRPHPHPRP,0.187

row,Sequence,shrunken log2 fold change
1,RRIRARPPRLPRPRPRPFHRPRP,0.206
2,RRIRPRPPRLPRPRPRPKLIPRP,-0.0783
3,RRIRTRPPRLPRPRPRPTMVPRP,-0.0941
4,RRIRHRPPRLPRPRPRPYTCPRP,-0.0278
5,RRIRFRPPRLPRPRPRPIFNPRP,-0.0984
6,RRIRNRPPRLPRPRPRPYLTPRP,-0.332
7,RRIRRRPPRLPRPRPRPSANPRP,0.326
8,RRIRGRPPRLPRPRPRPRPRPRP,1.31
9,RRIRCRPPRLPRPRPRPLWAPRP,0.321
10,RRIRGRPPRLPRPRPRPFLGPRP,0.0188
11,RRIRFRPPRLPRPRPRPHHTPRP,-0.597
12,RRIRTRPPRLPRPRPRPDCHPRP,-0.0374
13,RRIRMRPPRLPRPRPRPSMLPRP,0.0158
14,RRIRIRPPRLPRPRPRPSKWPRP,-0.539
15,RRIRRRPPRLPRPRPRPRADPRP,0.461
16,RRIRIRPPRLPRPRPRPKCCPRP,-0.143
17,RRIRRRPPRLPRPRPRPVWGPRP,0.359
18,RRIRARPPRLPRPRPRPENQPRP,0.153
19,RRIRKRPPRLPRPRPRPMFYPRP,-0.169
20,RRIRERPPRLPRPRPRPQQMPRP,-0.237
21,RRIRPRPPRLPRPRPRPCHPPRP,-0.154
22,RRIRGRPPRLPRPRPRPLGPPRP,0.456
23,RRIRLRPPRLPRPRPRPCLKPRP,-0.682
24,RRIRSRPPRLPRPRPRPDGLPRP,0.0397
25,RRIRIRPPRLPRPRPRPNFMPRP,0.713

row,Sequence,shrunken log2 fold change
1,RRIRLRPPRLPRPRPRPDFNPRP,-0.444
2,RRIRIRPPRLPRPRPRPFKEPRP,-0.263
3,RRIRARPPRLPRPRPRPCYYPRP,-0.508
4,RRIRTRPPRLPRPRPRPENIPRP,-0.0809
5,RRIRIRPPRLPRPRPRPVCEPRP,0.0639
6,RRIRIRPPRLPRPRPRPHDLPRP,-0.057
7,RRIRGRPPRLPRPRPRPLGEPRP,1.08
8,RRIRTRPPRLPRPRPRPKDYPRP,-0.115
9,RRIRFRPPRLPRPRPRPDPMPRP,-0.196
10,RRIRCRPPRLPRPRPRPKPWPRP,0.275
11,RRIRFRPPRLPRPRPRPGWKPRP,0.208
12,RRIRRRPPRLPRPRPRPKRFPRP,0.305
13,RRIRLRPPRLPRPRPRPVDIPRP,-0.183
14,RRIRRRPPRLPRPRPRPECTPRP,0.517
15,RRIRVRPPRLPRPRPRPSHIPRP,-0.706
16,RRIRYRPPRLPRPRPRPHHMPRP,-0.311
17,RRIRGRPPRLPRPRPRPYWDPRP,-0.26
18,RRIRLRPPRLPRPRPRPSCKPRP,0.0208
19,RRIRMRPPRLPRPRPRPGIDPRP,0.403
20,RRIRARPPRLPRPRPRPFSGPRP,-0.00374
21,RRIRRRPPRLPRPRPRPPVDPRP,0.241
22,RRIRWRPPRLPRPRPRPNRGPRP,0.172
23,RRIRMRPPRLPRPRPRPEWKPRP,0.0511
24,RRIRCRPPRLPRPRPRPKWDPRP,0.13
25,RRIRVRPPRLPRPRPRPDKCPRP,-0.0495
